Data published in US20230127248A1 (AILERON THERAPEUTICS, published 2023).
Bridge positions count the residues as written; N and C are the ends. Square brackets hold non-standard residues; d marks the D form. Phe(4-F) = N[C@@H](Cc1ccc(F)cc1)C(=O)O; R8 = C=CCCCCCC[C@@](C)(N)C(=O)O; hLeu = CC(C)CC[C@H](N)C(=O)O; S5 = C=CCCC[C@](C)(N)C(=O)O; Nle = CCCC[C@H](N)C(=O)O

How the values were obtained:
BCL-XL = target: T1, BCL-XL (UniProt Q07817 1-209); assay: IC50 against BCL-XL, Table 4b; assay format not stated
T1 construct: Construct used in the IC50 assay is not described; also called BCL-X1
T1 sequence (Q07817 1-209): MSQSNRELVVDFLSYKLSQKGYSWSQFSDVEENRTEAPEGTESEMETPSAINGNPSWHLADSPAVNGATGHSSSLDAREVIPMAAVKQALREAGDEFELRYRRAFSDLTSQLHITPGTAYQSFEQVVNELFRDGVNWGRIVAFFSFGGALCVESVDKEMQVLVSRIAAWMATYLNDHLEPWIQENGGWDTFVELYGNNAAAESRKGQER

[1] = target: T2, MCL-1 (Myeloid cell leukemia 1) (UniProt Q07820 172-327, limits assumed); assay: IC50 against MCL-1, Table 4b; assay format not stated
T2 construct: Construct used in the IC50 assay is not described
T2 sequence (Q07820 172-327 limits assumed): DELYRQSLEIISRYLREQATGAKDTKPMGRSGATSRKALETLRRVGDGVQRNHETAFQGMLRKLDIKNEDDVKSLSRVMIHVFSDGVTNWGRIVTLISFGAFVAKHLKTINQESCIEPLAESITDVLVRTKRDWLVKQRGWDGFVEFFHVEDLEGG

MDM2 = target: T3, MDM2 (human, UniProt Q00987 1-138, limits assumed); assay: IC50 against MDM2; assay format and competitor not described with the table
T3 construct: also called HDM2; human double minute 2
T3 sequence (Q00987 1-138 limits assumed): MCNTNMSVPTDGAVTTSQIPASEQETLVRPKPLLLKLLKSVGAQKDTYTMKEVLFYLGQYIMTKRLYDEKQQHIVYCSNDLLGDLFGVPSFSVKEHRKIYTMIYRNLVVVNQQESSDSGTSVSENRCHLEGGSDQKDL

B1: SP-810 (peptidomimetic macrocycle derived from the MCL-1/BCL-XL/BCL-2-binding helix of BIM) (peptide)
peptide: Ac-IWIAQELR[R8]IGDEFN[S5]YYARR-NH2
modifications: staple 9-16
SMILES: CC[C@H](C)[C@H](NC(C)=O)C(=O)N[C@@H](Cc1c[nH]c2ccccc12)C(=O)N[C@H](C(=O)N[C@@H](C)C(=O)N[C@@H](CCC(N)=O)C(=O)N[C@@H](CCC(=O)O)C(=O)N[C@@H](CC(C)C)C(=O)N[C@@H](CCCNC(=N)N)C(=O)N[C@]1(C)CCCCCCC=CCCC[C@@](C)(C(=O)N[C@@H](Cc2ccc(O)cc2)C(=O)N[C@@H](Cc2ccc(O)cc2)C(=O)N[C@@H](C)C(=O)N[C@@H](CCCNC(=N)N)C(=O)N[C@@H](CCCNC(=N)N)C(N)=O)NC(=O)[C@H](CC(N)=O)NC(=O)[C@H](Cc2ccccc2)NC(=O)[C@H](CCC(=O)O)NC(=O)[C@H](CC(=O)O)NC(=O)CNC(=O)[C@H]([C@@H](C)CC)NC1=O)[C@@H](C)CC
notes: Stapled BIM BH3 peptide, 21 residues
IC50 (BCL-XL): 9.2 nM

B2: SP-809 (peptidomimetic macrocycle derived from the MCL-1/BCL-XL/BCL-2-binding helix of BIM) (peptide)
peptide: Ac-IWIAQALR[R8]IGDEFN[S5]YYARR-NH2
modifications: staple 9-16
SMILES: CC[C@H](C)[C@H](NC(C)=O)C(=O)N[C@@H](Cc1c[nH]c2ccccc12)C(=O)N[C@H](C(=O)N[C@@H](C)C(=O)N[C@@H](CCC(N)=O)C(=O)N[C@@H](C)C(=O)N[C@@H](CC(C)C)C(=O)N[C@@H](CCCNC(=N)N)C(=O)N[C@]1(C)CCCCCCC=CCCC[C@@](C)(C(=O)N[C@@H](Cc2ccc(O)cc2)C(=O)N[C@@H](Cc2ccc(O)cc2)C(=O)N[C@@H](C)C(=O)N[C@@H](CCCNC(=N)N)C(=O)N[C@@H](CCCNC(=N)N)C(N)=O)NC(=O)[C@H](CC(N)=O)NC(=O)[C@H](Cc2ccccc2)NC(=O)[C@H](CCC(=O)O)NC(=O)[C@H](CC(=O)O)NC(=O)CNC(=O)[C@H]([C@@H](C)CC)NC1=O)[C@@H](C)CC
notes: as for B1
IC50 [1]: 10.6 nM
IC50 (BCL-XL): 3.9 nM

B3: SP-815 (peptidomimetic macrocycle derived from the MCL-1/BCL-XL/BCL-2-binding helix of BIM) (peptide)
peptide: Ac-IWIAQALR[R8]IGDAFN[S5]YYA-NH2
modifications: staple 9-16
SMILES: CC[C@H](C)[C@H](NC(C)=O)C(=O)N[C@@H](Cc1c[nH]c2ccccc12)C(=O)N[C@H](C(=O)N[C@@H](C)C(=O)N[C@@H](CCC(N)=O)C(=O)N[C@@H](C)C(=O)N[C@@H](CC(C)C)C(=O)N[C@@H](CCCNC(=N)N)C(=O)N[C@]1(C)CCCCCCC=CCCC[C@@](C)(C(=O)N[C@@H](Cc2ccc(O)cc2)C(=O)N[C@@H](Cc2ccc(O)cc2)C(=O)N[C@@H](C)C(N)=O)NC(=O)[C@H](CC(N)=O)NC(=O)[C@H](Cc2ccccc2)NC(=O)[C@H](C)NC(=O)[C@H](CC(=O)O)NC(=O)CNC(=O)[C@H]([C@@H](C)CC)NC1=O)[C@@H](C)CC
notes: Stapled BIM BH3 peptide, 19 residues
IC50 [1]: 8.4 nM
IC50 (BCL-XL): 22.4 nM

B4: SP-962 (peptidomimetic macrocycle derived from the MCL-1/BCL-XL/BCL-2-binding helix of BIM) (peptide)
peptide: Ac-IWIAQALR[R8][hLeu]GDAFN[S5]Y[Phe(4-F)]A-NH2
modifications: staple 9-16
SMILES: CC[C@H](C)[C@H](NC(C)=O)C(=O)N[C@@H](Cc1c[nH]c2ccccc12)C(=O)N[C@H](C(=O)N[C@@H](C)C(=O)N[C@@H](CCC(N)=O)C(=O)N[C@@H](C)C(=O)N[C@@H](CC(C)C)C(=O)N[C@@H](CCCNC(=N)N)C(=O)N[C@]1(C)CCCCCCC=CCCC[C@@](C)(C(=O)N[C@@H](Cc2ccc(O)cc2)C(=O)N[C@@H](Cc2ccc(F)cc2)C(=O)N[C@@H](C)C(N)=O)NC(=O)[C@H](CC(N)=O)NC(=O)[C@H](Cc2ccccc2)NC(=O)[C@H](C)NC(=O)[C@H](CC(=O)O)NC(=O)CNC(=O)[C@H](CCC(C)C)NC1=O)[C@@H](C)CC
notes: as for B3
IC50 [1]: 27 nM
IC50 (BCL-XL): 13 nM

B5: SP590 (Table 1b): Ac-LTF$rAYWAQL$A-NH2 (peptide)
peptide: Ac-LTF[R8]AYWAQL[S5]A-NH2
modifications: staple 4-11
SMILES: CC(=O)N[C@@H](CC(C)C)C(=O)N[C@H](C(=O)N[C@@H](Cc1ccccc1)C(=O)N[C@]1(C)CCCCCCC=CCCC[C@@](C)(C(=O)N[C@@H](C)C(N)=O)NC(=O)[C@H](CC(C)C)NC(=O)[C@H](CCC(N)=O)NC(=O)[C@H](C)NC(=O)[C@H](Cc2c[nH]c3ccccc23)NC(=O)[C@H](Cc2ccc(O)cc2)NC(=O)[C@H](C)NC1=O)[C@@H](C)O
IC50 (MDM2): 141 nM

Ac-LTF[R8]AYWAQL[S5]AA[Nle]A-NH2 (staple 4-11, i, i+7 stapled p53-derived macrocycle) [SP68: Ac-LTF$r8AYWAQL$AANleA-NH2]
IC50 (MDM2): 29 nM

Ac-LTF[R8]AYWAQL[S5]AAAAAA[dA]-NH2 (staple 4-11; also: single isomer iso1) [SP317: Ac-LTF$r8AYWAQL$AAAAAAa-NH2 (iso1)]
IC50 (MDM2): 10 nM
